# B1: hCB2-1/622: murine IgG3 monoclonal anti-human CB2 antibody, VH SEQ ID NO: 1, VL SEQ ID NO: 2, HC SEQ ID NO: 3, LC SEQ ID NO: 4 (antibody)
# heavy: EVQLQQSGPELVKPGASVKISCKTSGYTFTEYTMHWVRQSHGKSLEWIGGIDRYNGDTYYNQKFKDKATLTVDRSSSTAYMELRSLTSEDSAVYFCARNGAMDYWGQGISVTVSSATTTAPSVYPLVPGCSDTSGSSVTLGCLVKGYFPEPVTVKWNYGALSSGVRTVSSVLQSGFYSLSSLVTVPSSTWPSQTVICNVAHPASKTELIKRIEPRIPKPSTPPGSSCPPGNILGGPSVFIFPPKPKDALMISLTPKVTCVVVDVSEDDPDVHVSWFVDNKEVHTAWTQPREAQYNSTFRVVSALPIQHQDWMRGKEFKCKVNNKALPAPIERTISKPKGRAQTPQVYTIPPPREQMSKKKVSLTCLVTNFFSEAISVEWERNGELEQDYKNTPPILDSDGTYFLYSKLTVDTDSWLQGEIFTCSVVHEALHNHHTQKNLSRSPGK
# light: DVVMTQTPLSLPVSLGDQASISCRSSQSLVHSNGNTYLHWFLQKPGQSPKLLIYKVSIRFSGVPDRFSGSGSGTDFTLKISRVEAEDLGVYFCSQSTHVPPLTFGAGTKLELKRADAAPTVSIFPPSSEQLTSGGASVVCFLNNFYPKDINVKWKIDGSERQNGVLNSWTDQDSKDSTYSMSSTLTLTKDEYERHNSYTCEATHKTSTSPIVKSFNRNEC
# Legend:
# [1] = Storage stability of antibody working dilution; format: physicochemical; details: working dilution (5 μg/sample), on ice
# Description: FIG. 12: Single dose in vivo study monitoring the pharmacodynomic effect of RG7774 on CB2 expression on B-cells in Cynomolgus upon oral dosing. Three healthy cynomolgus monkeys were dosed with 100 mg/kg of the CB2 agonist RG7774. The blood draw at different time points was followed by the incubation with the anti-human CB2 antibody 1/622. The expression of CB2 on the surface of B-cells was analyzed using a lineage marker mix specific for B-cells and T-cells. The B/T-cell CB2 MFI ratio was calculated and normalized to baseline. 0 μM served as 100% baseline receptor expression. […] Due to a storage effect of the antibody working dilution (5 μg/sample) of the anti-human CB2 Ab 1/622 the 4 and 7 hours' time point have been excluded. The working dilution of this antibody is only stable for 2 hours on ice.
# [2] = test system: pANITA3.1 ratGIPR (DB388); test: Western blot of cell lysates; format: binding, rat; set-up: key to Western Blot signal intensity: “−” no signal; “+”-“+++++” signal intensity; “+”-“+++++” signal intensity; “+”-“+++++” signal intensity; “+”-“+++++” signal intensity; “+”-“+++++” signal intensity
# Description: (§1) The positive clones (Table 1) were further characterized by immunofluorescence (IF; Table 2), Western Blot (Table 3, 1) and Immune precipitation (Table 4, 2) on full length hCB2, hCB1, mCB2 stable-transfected CHO-cell lines in addition to the 2 pANITA constructs.
# For Western blot analysis, cells were collected using enzyme free dissociation buffer (Cell dissociation buffer enzyme-free Hanks'-based, Gibco), and washed two times with PBS. To prepare cell lysate, 10^6 cells were lysed with 0.1 ml of lysis buffer (1% NP40, 10% glycerol, 2 mM EDTA, 137 mM NaCl, 20 mM TrisHCl, pH8, Protease Inhibitors) for 10 min on ice. The lysate was cleared by centrifugation at 20′000 g for 5 min. For SDS-PAGE cell lysate was resolved on precast 4-12% gradient gels (NuPAGE® Novex 4-12% Bis-Tris Gel, Invitrogen) with MES running buffer according to the manufacturer's directions. The separation of proteins was visualized by Colloidal Blue staining. The proteins were electrophoretically transferred to nitrocellulose membrane using a dry-blotting system (iBlot, Invitrogen). After blocking the membrane for 16 h in blocking buffer (5% Milk in PBS) at 4° C., specific proteins were detected with appropriate dilutions of mAbs in blocking buffer for 1 h at approximately 20° C. […]
# CHODukx negative = test: Immunofluorescence on methanol-fixed cells, negative control; format: binding; set-up: key to immunofluorescence signal intensity: “−” no fluorescence detected; “+”-“++++” intensity of fluorescent signal; “+”-“++++” intensity of fluorescent signal; “+”-“++++” intensity of fluorescent signal; “+”-“++++” intensity of fluorescent signal
# Description: as §1
# (§2) For IF analysis, methanol-fixed cells were incubated for 20 min in a humid chamber at 37° C. with the respective hCB2 and mCB2 clones. After rinsing twice and washing for 15 min in PBS, 125 μg/ml FITC-conjugated […] anti-mouse IgG antibodies (RAM/IgG (H+L)/FITC, Nordic
# (§3) Immunological Laboratories) diluted in PBS was added and incubated for 20 min in a humid chamber at 37° C. Cells were rinsed twice and washed for 15 min in PBS, mounted with mounting solution (50% PBS 50% glycerol) and covered with a coverslip. Staining was assessed by fluorescence microscopy on a Leica CTR500 fluorescence microscope and a Leica DFC300 FX digital camera.
# CHODukx CRE hCB2 Cl.90 [3] = molecular target: T1, CHODukx CRE hCB2 Cl.90 (Homo sapiens, UniProt P34972); test: Immunoprecipitation from whole cell lysates; format: binding; set-up: key: “−” no signal; “+”-“++++” signal intensity; “+”-“++++” signal intensity; “+”-“++++” signal intensity; “+”-“++++” signal intensity; details: CHODukx CRE hCB2 Cl.90 lysate
# T1 construct: expressed in transfected cells
# T1 sequence (P34972 whole entry): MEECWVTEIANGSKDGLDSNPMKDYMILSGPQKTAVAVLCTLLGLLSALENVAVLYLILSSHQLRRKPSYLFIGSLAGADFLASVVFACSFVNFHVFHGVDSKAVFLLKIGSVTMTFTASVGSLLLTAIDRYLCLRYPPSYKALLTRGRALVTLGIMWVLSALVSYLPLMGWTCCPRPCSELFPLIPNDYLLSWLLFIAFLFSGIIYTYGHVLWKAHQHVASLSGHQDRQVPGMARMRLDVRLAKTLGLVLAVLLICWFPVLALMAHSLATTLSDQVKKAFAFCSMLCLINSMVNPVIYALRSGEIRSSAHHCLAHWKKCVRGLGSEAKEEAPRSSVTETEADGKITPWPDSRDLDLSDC
# Description: as §1
# (§4) For immunoprecipitation (IP), whole cell lysates were incubated with the respective antibodies. IP was performed according to established protocols and subsequent western blot as described herein above.
# [4] = test system: pANITA3.1 ratGIPR (DB388); test: Immunoprecipitation from whole cell lysates; format: binding, rat; set-up: key to Immunoprecipitation signal intensity: “−” no signal; “+”-“+++++” signal intensity; “+”-“+++++” signal intensity; “+”-“+++++” signal intensity; “+”-“+++++” signal intensity; “+”-“+++++” signal intensity
# Description: as §1, §4
# CHO-A2 mCB2 = molecular target: T2, CHO-A2 mCB2 (Mus musculus, UniProt P47936); test: Immunofluorescence on methanol-fixed transfected cells; format: binding; set-up: key to immunofluorescence signal intensity: “−” no fluorescence detected; “+”-“++++” intensity of fluorescent signal; “+”-“++++” intensity of fluorescent signal; “+”-“++++” intensity of fluorescent signal; “+”-“++++” intensity of fluorescent signal
# T2 construct: expressed in transfected cells
# T2 sequence (P47936 whole entry): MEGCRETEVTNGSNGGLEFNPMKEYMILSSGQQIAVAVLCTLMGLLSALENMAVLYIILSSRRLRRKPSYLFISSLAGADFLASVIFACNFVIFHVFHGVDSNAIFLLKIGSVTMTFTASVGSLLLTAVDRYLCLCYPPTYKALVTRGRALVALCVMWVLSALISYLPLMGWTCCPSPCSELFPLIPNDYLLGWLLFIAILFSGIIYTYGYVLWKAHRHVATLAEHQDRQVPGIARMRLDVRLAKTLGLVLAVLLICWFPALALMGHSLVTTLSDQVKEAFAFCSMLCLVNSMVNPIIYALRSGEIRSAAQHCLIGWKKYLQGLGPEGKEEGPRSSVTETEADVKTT
# Description: as §1, §2, §3
# CHODukx CRE hCB1 Cl.20 = molecular target: T3, CHODukx CRE hCB1 Cl.20 (Homo sapiens, UniProt P21554); test: as above; format: binding; set-up: key to immunofluorescence signal intensity: “−” no fluorescence detected; “+”-“++++” intensity of fluorescent signal; “+”-“++++” intensity of fluorescent signal; “+”-“++++” intensity of fluorescent signal; “+”-“++++” intensity of fluorescent signal
# T3 construct: expressed in transfected cells
# T3 sequence (P21554 whole entry): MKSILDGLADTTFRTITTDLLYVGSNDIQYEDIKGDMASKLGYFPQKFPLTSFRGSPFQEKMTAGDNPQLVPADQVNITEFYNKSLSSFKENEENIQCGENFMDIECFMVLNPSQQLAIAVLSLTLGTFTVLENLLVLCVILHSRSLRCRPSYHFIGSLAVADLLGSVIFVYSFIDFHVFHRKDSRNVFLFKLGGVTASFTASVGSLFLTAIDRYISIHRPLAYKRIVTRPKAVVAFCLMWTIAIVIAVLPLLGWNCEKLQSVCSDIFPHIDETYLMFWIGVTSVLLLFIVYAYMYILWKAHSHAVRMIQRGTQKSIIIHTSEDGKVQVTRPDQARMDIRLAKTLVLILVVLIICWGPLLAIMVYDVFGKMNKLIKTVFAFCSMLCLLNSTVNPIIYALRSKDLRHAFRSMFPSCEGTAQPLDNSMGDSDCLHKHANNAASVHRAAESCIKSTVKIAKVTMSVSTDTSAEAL
# Description: as §1, §2, §3
# CHODukx CRE hCB2 Cl.90 [5] = molecular target: T1, CHODukx CRE hCB2 Cl.90; test: as above; format: binding; set-up: key to immunofluorescence signal intensity: “−” no fluorescence detected; “+”-“++++” intensity of fluorescent signal; “+”-“++++” intensity of fluorescent signal; “+”-“++++” intensity of fluorescent signal; “+”-“++++” intensity of fluorescent signal
# Description: as §1, §2, §3
# [6] = pANITA3.1 ratGIPR (DB388) lysate
molecule,measurement,setting,value
B1,stability of antibody working dilution,[1],2 h
same,Western Blot signal intensity,[2]; [6],−
same,Western blot detection,[2]; rat GIPR,"no mCB2, hCB1 or rat GIPR was detected"
same,immunofluorescence signal intensity,CHODukx negative; CHODukx negative cells,−
same,immunofluorescence staining,CHODukx negative; negative control cells,no staining
same,Immunoprecipitation signal intensity,CHODukx CRE hCB2 Cl.90 [3],+
same,Immunoprecipitation signal intensity,[4]; [6],−
same,immunoprecipitation cross reactivity,[4]; rat GIPR,no cross reactivity
same,immunofluorescence signal intensity,CHO-A2 mCB2; CHO-A2 mCB2 cells,−
same,immunofluorescence staining,CHO-A2 mCB2; cells expressing mouse CB2,no staining
same,immunofluorescence signal intensity,CHODukx CRE hCB1 Cl.20; CHODukx CRE hCB1 Cl.20 cells,−
same,immunofluorescence staining,CHODukx CRE hCB1 Cl.20; cells expressing human CB1,no staining
same,immunofluorescence signal intensity,CHODukx CRE hCB2 Cl.90 [5]; CHODukx CRE hCB2 Cl.90 cells,+++
same,immunofluorescence staining,CHODukx CRE hCB2 Cl.90 [5]; the two cell lines expressing human CB2,high fluorescent signal intensities

# From patent publication US20260029420A1, “ANTI-CB2 ANTIBODIES AND THEIR USE IN A FLOW CYTOMETRY ASSAY TO MEASURE CELL SURFACE CB2 EXPRESSION” (Hoffmann-La Roche Inc., priority 2022, published 2026)
